Laboratory results taken from patent US20190275133A1.

Target: IL-2Rαβ (UniProt P01589)
Experiment: in vitro binding affinity against IL-2 as a standard (Example 2: SPR, Biacore T-100, receptor-Fc captured, EC50 of RU against concentration)

Chain of UniProt P01589 (P01589 22-240 limits assumed): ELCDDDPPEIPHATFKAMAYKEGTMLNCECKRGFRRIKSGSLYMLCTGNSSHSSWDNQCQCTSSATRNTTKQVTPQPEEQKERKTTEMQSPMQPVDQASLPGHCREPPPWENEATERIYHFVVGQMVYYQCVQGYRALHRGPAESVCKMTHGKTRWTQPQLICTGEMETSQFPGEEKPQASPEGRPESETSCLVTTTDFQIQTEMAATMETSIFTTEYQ

Substance: RSLAIL-2 (multiPEGylated recombinant human IL-2 with the aldesleukin sequence; composition of primarily 4-mers, 5-mers and 6-mers of releasably attached mPEG2-C2-fmoc-20kD) (from UniProt P60568 22-153) (ligand)
- fold decrease in affinity relative to IL-2: 60 fold
